Common to all, as to experiment: single-channel current recording
Assay [1] concerns the target OmpG^L3-FLAG/L6-SA1.1 (E. coli) (UniProt P76045).
For another assay, the target named is OmpG^L6-SA1.1 (E. coli) (UniProt P76045).
The target in assay [2] is OmpG^L3/L6-SA1.1 (E. coli) (UniProt P76045).
Chain of OmpG^L3/L6-SA1.1 (E. coli) (P76045 22-301): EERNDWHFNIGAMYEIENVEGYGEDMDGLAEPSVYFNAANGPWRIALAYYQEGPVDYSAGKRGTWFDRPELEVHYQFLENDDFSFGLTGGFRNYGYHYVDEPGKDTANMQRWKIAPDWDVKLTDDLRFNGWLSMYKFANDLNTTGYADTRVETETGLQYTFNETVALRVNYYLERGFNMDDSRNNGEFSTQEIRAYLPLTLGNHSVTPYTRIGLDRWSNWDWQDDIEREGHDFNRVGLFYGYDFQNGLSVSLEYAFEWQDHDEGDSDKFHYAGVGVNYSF

Chain of OmpG^L3-FLAG/L6-SA1.1 (E. coli) (P76045 22-301): as above
Chain of OmpG^L6-SA1.1 (E. coli) (P76045 22-301): as above
Chain of streptavidin (P22629 25-183): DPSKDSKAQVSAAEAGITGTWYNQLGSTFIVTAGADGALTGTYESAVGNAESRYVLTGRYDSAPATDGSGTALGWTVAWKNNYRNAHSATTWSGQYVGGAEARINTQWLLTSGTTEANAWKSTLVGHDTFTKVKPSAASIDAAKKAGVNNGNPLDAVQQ

By Kd is commonly meant the free concentration of one partner at which half of the binding sites on the other are occupied at equilibrium, for simple one-to-one binding. High values mean a looser complex, low ones a tighter complex. For orientation: koff means the first-order rate constant of dissociation. The term kon denotes a measure of how fast the partners come together. A lower kon goes with slow association. In assay [1], “streptavidin (from UniProt P22629 25-183) (natural protein)” registered a Kd of 7.51 µM, a dissociation rate constant (koff) of 0.55 s⁻¹ and a kon of 72200 M⁻¹ s⁻¹. In the assay with OmpG^L6-SA1.1 (E. coli), this substance came in with a Kd of 10.1 µM, a koff of 0.78 s⁻¹ and a kon of 77600 M⁻¹ s⁻¹. In addition, in assay [2], the Kd came out at 0.03 µM, the k'Off of the sub-events within a discrete binding event turned out to be 0.7 s⁻¹, the k'On 1 of the sub-events (rebinding) is 3.9e+10 M⁻¹ s⁻¹ and the k'On 2 of the sub-events (rebinding) stood at 4.4e+09 M⁻¹ s⁻¹. In assay [2], the koff was 0.01 s⁻¹, the on-rate constant (kon) worked out at 326000 M⁻¹ s⁻¹, the tau'On 1 of the sub-events (rebinding) turned out to be 2.56 ms and the tau'On 2 of the sub-events (rebinding) was 22.9 ms.

For the origin of these results see publication PMC9898208.
